Laboratory results reported in paper PMC12804927.

Molecular target: T1, GFP-UTP15 IDR (UniProt Q8C7V3 314-528)
T1 sequence: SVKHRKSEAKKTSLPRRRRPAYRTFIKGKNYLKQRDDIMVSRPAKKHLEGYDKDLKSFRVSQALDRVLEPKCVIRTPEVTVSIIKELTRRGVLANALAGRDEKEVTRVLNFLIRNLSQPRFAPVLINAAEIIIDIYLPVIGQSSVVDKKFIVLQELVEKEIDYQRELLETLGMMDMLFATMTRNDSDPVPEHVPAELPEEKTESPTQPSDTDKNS
Assay: EMSA

## UCGUGUCUCGCUUGACCAUGUUCCCAGAGUCGGUGGAUGU (ssRNA) [5'ETS RNA probe]
  binding result: binds
